Reference: patent publication US20130345135A1 (WISCONSIN ALUMNI RESEARCH FOUNDATION, published 2013)

Biological target: myosin in murine skinned myocardium (principal isoform alpha-cardiac myosin) (mouse, UniProt Q02566 1-1938)
Assay: cell-based or functional assay

Sequence of myosin in murine skinned myocardium (principal isoform alpha-cardiac myosin) (Q02566 whole entry, canonical isoform): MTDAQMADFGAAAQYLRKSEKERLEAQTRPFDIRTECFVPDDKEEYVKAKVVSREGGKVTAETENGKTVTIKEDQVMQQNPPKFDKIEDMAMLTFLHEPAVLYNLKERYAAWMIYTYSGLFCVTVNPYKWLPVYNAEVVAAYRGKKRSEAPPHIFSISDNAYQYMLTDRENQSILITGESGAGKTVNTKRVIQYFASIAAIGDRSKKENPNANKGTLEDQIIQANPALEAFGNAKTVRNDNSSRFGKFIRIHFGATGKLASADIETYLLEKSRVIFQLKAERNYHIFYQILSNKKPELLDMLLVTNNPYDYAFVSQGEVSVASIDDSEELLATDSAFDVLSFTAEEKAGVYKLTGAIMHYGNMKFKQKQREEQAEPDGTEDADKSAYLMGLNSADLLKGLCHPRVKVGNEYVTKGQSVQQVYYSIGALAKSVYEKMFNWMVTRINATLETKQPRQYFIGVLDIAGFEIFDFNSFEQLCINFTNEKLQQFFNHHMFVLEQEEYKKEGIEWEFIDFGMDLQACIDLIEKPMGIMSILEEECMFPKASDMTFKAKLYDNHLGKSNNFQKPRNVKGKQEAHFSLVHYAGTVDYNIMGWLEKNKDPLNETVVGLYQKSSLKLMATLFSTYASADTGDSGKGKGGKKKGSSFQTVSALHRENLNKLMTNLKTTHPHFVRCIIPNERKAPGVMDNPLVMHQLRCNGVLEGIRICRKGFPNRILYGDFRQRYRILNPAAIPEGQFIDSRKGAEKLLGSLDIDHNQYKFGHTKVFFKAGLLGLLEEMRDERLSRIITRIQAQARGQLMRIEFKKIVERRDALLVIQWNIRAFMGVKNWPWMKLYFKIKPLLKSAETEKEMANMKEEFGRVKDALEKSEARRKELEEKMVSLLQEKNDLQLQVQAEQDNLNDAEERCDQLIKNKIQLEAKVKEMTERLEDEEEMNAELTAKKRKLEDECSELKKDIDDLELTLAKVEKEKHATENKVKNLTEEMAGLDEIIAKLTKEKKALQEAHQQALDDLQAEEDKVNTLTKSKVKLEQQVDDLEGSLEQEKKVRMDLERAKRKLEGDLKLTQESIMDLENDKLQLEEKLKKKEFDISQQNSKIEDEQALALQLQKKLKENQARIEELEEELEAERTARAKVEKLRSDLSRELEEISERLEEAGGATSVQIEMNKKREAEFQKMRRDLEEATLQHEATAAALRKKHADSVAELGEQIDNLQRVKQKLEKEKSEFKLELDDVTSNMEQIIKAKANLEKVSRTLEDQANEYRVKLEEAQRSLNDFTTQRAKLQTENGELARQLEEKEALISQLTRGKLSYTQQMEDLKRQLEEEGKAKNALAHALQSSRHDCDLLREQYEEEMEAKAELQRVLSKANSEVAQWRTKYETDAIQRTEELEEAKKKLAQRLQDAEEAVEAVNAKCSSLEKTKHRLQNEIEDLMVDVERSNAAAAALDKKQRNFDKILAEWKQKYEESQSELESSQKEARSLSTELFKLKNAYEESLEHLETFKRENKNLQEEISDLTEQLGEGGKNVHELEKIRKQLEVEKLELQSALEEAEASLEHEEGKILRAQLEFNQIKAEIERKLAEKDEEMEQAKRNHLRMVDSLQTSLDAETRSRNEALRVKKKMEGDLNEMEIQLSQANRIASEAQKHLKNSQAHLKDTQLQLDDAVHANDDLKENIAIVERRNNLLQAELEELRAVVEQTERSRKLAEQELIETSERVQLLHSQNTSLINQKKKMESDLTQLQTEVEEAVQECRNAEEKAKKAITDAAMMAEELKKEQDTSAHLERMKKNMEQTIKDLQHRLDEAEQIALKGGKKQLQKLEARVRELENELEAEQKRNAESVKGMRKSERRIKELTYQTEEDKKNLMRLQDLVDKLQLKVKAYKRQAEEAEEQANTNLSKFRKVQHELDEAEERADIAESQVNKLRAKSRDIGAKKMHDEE

force at intermediate pCa (scaled to force at pCa 4.5), mouse, 50 uM peptide, fold of control: ~2 x control
force at pCa 5.9 (scaled to force at pCa 4.5), mouse, 50 uM peptide, fold of untreated: ~3 x (fold of untreated force)
Binder: FSSLLKKRDAFRRDAKLE [peptide 302A]
